Reference: patent US20250368745A1 (published 2025)
Substitutions are numbered along the chain they refer to. Names may count otherwise.

T1: human IL-18BP (human, UniProt O95998 31-194)
T1 construct: UniProt printed as 095998; also called hIL-18BP
T1 sequence: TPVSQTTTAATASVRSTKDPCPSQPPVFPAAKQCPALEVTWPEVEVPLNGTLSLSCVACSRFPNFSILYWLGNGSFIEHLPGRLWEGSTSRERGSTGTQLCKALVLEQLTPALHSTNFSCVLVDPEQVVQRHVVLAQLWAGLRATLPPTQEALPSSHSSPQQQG

B1: SA301a LC-Q90A (antibody, name in Kabat numbering, V domains shown)
VH: QVQLQESGPGLVKPSQTLSLTCTVSGYSITSDYNSHWIRQPPGKGLEWIGYIHYSGSTNYNPSLKSRVTISRDTSKNQFSLKLSSVTAADTAVYYCARNYGSIYVNYFDYWGQGTLVTVSS
VL: EIVLTQSPATLSLSPGERATLSCSASSSVSYMYWYQQKPGQAPRPLIYRTSNLASGIPARFSGSGSGTDFTLTISSLEPEDFAVYYCQAYHSYPTFGGGTKVEIK
notes: IgG1 kappa
B2: SA301a LC-Q89K (antibody, V domains shown)
VH: B1 VH
VL: B1 VL with Q88K, A89Q
B3: SA301a LC-H92Y (antibody, V domains shown)
VH: B1 VH
VL: B1 VL with A89Q, H91Y
B4: SA301a LC-Q89D (antibody, V domains shown)
VH: B1 VH
VL: B1 VL with Q88D, A89Q
B5: SA301a LC-H92T (antibody, V domains shown)
VH: B1 VH
VL: B1 VL with A89Q, H91T
B6: SA301a LC-Q89F (antibody, V domains shown)
VH: B1 VH
VL: B1 VL with Q88F, A89Q
B7: SA301a LC-H92A (antibody, V domains shown)
VH: B1 VH
VL: B1 VL with A89Q, H91A
B8: SA301a LC-H92V (antibody, V domains shown)
VH: B1 VH
VL: B1 VL with A89Q, H91V
B9: SA301a LC-Q89A (antibody, V domains shown)
VH: B1 VH
VL: B1 VL with Q88A, A89Q
B10: SA301a LC-Q89M (antibody, V domains shown)
VH: B1 VH
VL: B1 VL with Q88M, A89Q
B11: SA301a LC-Q89L (antibody, V domains shown)
VH: B1 VH
VL: B1 VL with Q88L, A89Q
B12: SA301a LC-Q89G (antibody, V domains shown)
VH: B1 VH
VL: B1 VL with Q88G, A89Q
B13: SA301a LC-Q89S (antibody, V domains shown)
VH: B1 VH
VL: B1 VL with Q88S, A89Q
B14: SA301a LC-H92F (antibody, V domains shown)
VH: B1 VH
VL: B1 VL with A89Q, H91F
B15: SA301a LC-Q89E (antibody, V domains shown)
VH: B1 VH
VL: B1 VL with Q88E, A89Q
B16: SA301a LC-Q89V (antibody, V domains shown)
VH: B1 VH
VL: B1 VL with Q88V, A89Q
B17: SA301a LC-Q89N (antibody, V domains shown)
VH: B1 VH
VL: B1 VL with Q88N, A89Q
B18: SA301a LC-Q89Y (antibody, V domains shown)
VH: B1 VH
VL: B1 VL with Q88Y, A89Q
B19: SA301a LC-H92E (antibody, V domains shown)
VH: B1 VH
VL: B1 VL with A89Q, H91E
B20: SA301a LC-Y91S (antibody, name in Kabat numbering, V domains shown)
VH: B1 VH
VL: B1 VL with A89Q, Y90S
notes: IgG1 kappa
B21: SA301a LC-Y91A (antibody, name in Kabat numbering, V domains shown)
VH: B1 VH
VL: B1 VL with A89Q, Y90A
notes: IgG1 kappa
B22: SA301a LC-Q90M (antibody, name in Kabat numbering, V domains shown)
VH: B1 VH
VL: B1 VL with A89M
notes: IgG1 kappa
B23: SA301a LC-Y91T (antibody, name in Kabat numbering, V domains shown)
VH: B1 VH
VL: B1 VL with A89Q, Y90T
notes: IgG1 kappa
B24: SA301a LC-Q90F (antibody, name in Kabat numbering, V domains shown)
VH: B1 VH
VL: B1 VL with A89F
notes: IgG1 kappa
B25: SA301a LC-Y91E (antibody, name in Kabat numbering, V domains shown)
VH: B1 VH
VL: B1 VL with A89Q, Y90E
notes: IgG1 kappa
B26: SA301a LC-Y91K (antibody, name in Kabat numbering, V domains shown)
VH: B1 VH
VL: B1 VL with A89Q, Y90K
notes: IgG1 kappa
B27: SA301a LC-Y91F (antibody, name in Kabat numbering, V domains shown)
VH: B1 VH
VL: B1 VL with A89Q, Y90F
notes: IgG1 kappa
B28: SA301a LC-Q90L (antibody, name in Kabat numbering, V domains shown)
VH: B1 VH
VL: B1 VL with A89L
notes: IgG1 kappa
B29: SA301a LC-Q90H (antibody, name in Kabat numbering, V domains shown)
VH: B1 VH
VL: B1 VL with A89H
notes: IgG1 kappa
B30: SA301a LC-Q90R (antibody, name in Kabat numbering, V domains shown)
VH: B1 VH
VL: B1 VL with A89R
notes: IgG1 kappa
B31: SA301a LC-Y91M (antibody, name in Kabat numbering, V domains shown)
VH: B1 VH
VL: B1 VL with A89Q, Y90M
notes: IgG1 kappa
B32: SA301a LC-Y91R (antibody, name in Kabat numbering, V domains shown)
VH: B1 VH
VL: B1 VL with A89Q, Y90R
notes: IgG1 kappa
B33: SA301a LC-Q90V (antibody, name in Kabat numbering, V domains shown)
VH: B1 VH
VL: B1 VL with A89V
notes: IgG1 kappa
B34: SA301a LC-Q90G (antibody, name in Kabat numbering, V domains shown)
VH: B1 VH
VL: B1 VL with A89G
notes: IgG1 kappa
B35: SA301a LC-Q90K (antibody, name in Kabat numbering, V domains shown)
VH: B1 VH
VL: B1 VL with A89K
notes: IgG1 kappa
B36: SA301a LC-Q90D (antibody, name in Kabat numbering, V domains shown)
VH: B1 VH
VL: B1 VL with A89D
notes: IgG1 kappa
B37: SA301a LC-Q90Y (antibody, name in Kabat numbering, V domains shown)
VH: B1 VH
VL: B1 VL with A89Y
notes: IgG1 kappa
B38: SA301a LC-Q90T (antibody, name in Kabat numbering, V domains shown)
VH: B1 VH
VL: B1 VL with A89T
notes: IgG1 kappa
B39: SA301a LC-Y91Q (antibody, name in Kabat numbering, V domains shown)
VH: B1 VH
VL: B1 VL with A89Q, Y90Q
notes: IgG1 kappa
B40: SA301a LC-Y91I (antibody, name in Kabat numbering, V domains shown)
VH: B1 VH
VL: B1 VL with A89Q, Y90I
notes: IgG1 kappa
B41: SA301a LC-Q90I (antibody, name in Kabat numbering, V domains shown)
VH: B1 VH
VL: B1 VL with A89I
notes: IgG1 kappa
B42: SA301a LC-Y91G (antibody, name in Kabat numbering, V domains shown)
VH: B1 VH
VL: B1 VL with A89Q, Y90G
notes: IgG1 kappa
B43: SA301a LC-Y91V (antibody, name in Kabat numbering, V domains shown)
VH: B1 VH
VL: B1 VL with A89Q, Y90V
notes: IgG1 kappa
B44: SA301a LC-Y91P (antibody, name in Kabat numbering, V domains shown)
VH: B1 VH
VL: B1 VL with A89Q, Y90P
notes: IgG1 kappa
B45: SA301a LC-Q90P (antibody, name in Kabat numbering, V domains shown)
VH: B1 VH
VL: B1 VL with A89P
notes: IgG1 kappa
B46: SA301a LC-Q90S (antibody, name in Kabat numbering, V domains shown)
VH: B1 VH
VL: B1 VL with A89S
notes: IgG1 kappa
B47: SA301a LC-Q90E (antibody, name in Kabat numbering, V domains shown)
VH: B1 VH
VL: B1 VL with A89E
notes: IgG1 kappa

Target: T1, human IL-18BP
Experiment: BLI, apparent KD

| Binder | Kd |
| --- | --- |
| B1 | 1070 pM |
| B2 | 970 pM |
| B3 | 100 pM |
| B4 | 20 pM |
| B5 | 150 pM |
| B6 | 400 pM |
| B7 | 950 pM |
| B8 | 200 pM |
| B9 | 390 pM |
| B10 | 490 pM |
| B11 | 850 pM |
| B12 | 320 pM |
| B13 | 280 pM |
| B14 | 700 pM |
| B15 | 460 pM |
| B16 | 510 pM |
| B17 | 280 pM |
| B18 | 350 pM |
| B19 | 360 pM |
| B20 | 330 pM |
| B21 | 1080 pM |
| B22 | 270 pM |
| B23 | 450 pM |
| B24 | 650 pM |

| Binder | Kd |
| --- | --- |
| B25 | 310 pM |
| B26 | 1130 pM |
| B27 | 260 pM |
| B28 | 130 pM |
| B29 | 250 pM |
| B30 | 510 pM |
| B31 | 220 pM |
| B32 | 180 pM |
| B33 | 290 pM |
| B34 | 780 pM |
| B35 | 100 pM |
| B36 | 310 pM |
| B37 | 1040 pM |
| B38 | 400 pM |
| B39 | 240 pM |
| B40 | 420 pM |
| B41 | 240 pM |
| B42 | 230 pM |
| B43 | 1850 pM |
| B44 | 240 pM |
| B45 | 90 pM |
| B46 | 410 pM |
| B47 | 180 pM |
